± gives the uncertainty stated by the source.
Test: self-splicing fitness, log relative to wild type (ln ratio); higher = more splicing; Tetrahymena group I intron in knt gene, E. coli kanamycin selection, DiMSum; sequences stand for … in CUCUCU…GGAGGGAAAAGUUAUCAGGCAUGCACCUGGUAGCUAGUCUUUAAACCAAUAGAUUGCAUCGGUUUAAAAGGCAAGACCGUCAAAUUGCGGGAAAGGGGUCAACAGCCGUUCAGUACCAAGUCUCAGGGGAAACUUUGAGAUGGCCUUGCAAAGGGUAUGGUAAUAAGCUGACGGACAUGGUCCUAACCACGCAGCCAAGUCCUAAGUCAACAGAUCUUCUGUUGAUAUGGAUGCAGUUCACAGACUAAAUGUCGGUCGGGGAAGAUGUAUUCUUCUCAUAAGAUAUAGUCGGACCUCUCCUUAAUGGGAGCUAGCGGAUGAAGUGAUGCAACACUGGAGCCGCUGGGAACUAAUUUGUAUGCGAAAGUAUAUUGAUUAGUUUUGGAGUACUCGUGGUCG
Outline: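 Fitness was computed with DiMSum as the error-weighted combination of replicate fold changes, kanamycin versus none, each normalised to wild type. The library randomised all eight intron nucleotides of the P1ex region, with the intron placed in the knt kanamycin-resistance gene on pET-22b(+) in E. coli BL21(DE3). Six replicate transformations were grown overnight at 37°C or 30°C on LB agar with or without 25 μg/mL kanamycin, plus 100 μg/mL carbenicillin, 50 μM IPTG and 0.2% rhamnose. Pooled colonies were amplicon-sequenced on an Illumina HiSeq 2500.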

Row | Sequence | self-splicing fitness (ln) (30 °C) | self-splicing fitness (ln) (37 °C)
1 | CAAAAGCAAUAUUACGAAAG | -0.791 ± 0.077 | -0.705 ± 0.097
2 | GCUUAGCAAUAUUACGGCCU | -1.05 ± 0.18 | -1.57 ± 0.25
3 | UUCCAGCAAUAUUACGGCCA | -1.08 ± 0.13 | 0.682 ± 0.16
4 | AAAAAGCAAUAUUACGCGAC | -2.77 ± 0.18 | -1.23 ± 0.12
5 | CGUCAGCAAUAUUACGCUUG | -1.03 ± 0.098 | 0.41 ± 0.12
6 | ACUUAGCAAUAUUACGUAAU | -2.39 ± 0.1 | -1.54 ± 0.12
7 | UGCUAGCAAUAUUACGAUUU | -2.4 ± 0.18 | -1.1 ± 0.16
8 | CCUGAGCAAUAUUACGUCGU | -2.02 ± 0.43 | -2.06 ± 0.27
9 | CCCAAGCAAUAUUACGCCCA | -2.33 ± 0.24 | -2.46 ± 0.25
10 | ACUUAGCAAUAUUACGCACU | -0.553 ± 0.093 | 0.532 ± 0.12
11 | UGAGAGCAAUAUUACGUAGU | -2.29 ± 0.24 | -2.41 ± 0.36
12 | CGGAAGCAAUAUUACGAACU | -1.04 ± 0.1 | -0.0975 ± 0.12
13 | UCGCAGCAAUAUUACGGCCA | -0.107 ± 0.091 | 0.246 ± 0.11
14 | GUAAAGCAAUAUUACGCGAG | -0.869 ± 0.068 | -0.158 ± 0.091
15 | CUUGAGCAAUAUUACGAAGU | -3.67 ± 0.33 | -3.38 ± 0.35
16 | GGUCAGCAAUAUUACGCGUU | -0.112 ± 0.084 | 0.0966 ± 0.13
17 | CAUCAGCAAUAUUACGCCUG | -0.718 ± 0.092 | -0.495 ± 0.098
18 | AUAUAGCAAUAUUACGUGCG | -0.942 ± 0.094 | -0.942 ± 0.13
19 | GUAAAGCAAUAUUACGAGAG | -3.16 ± 0.16 | -3.37 ± 0.23

Row | Sequence | self-splicing fitness (ln) (30 °C) | self-splicing fitness (ln) (37 °C)
20 | ACGCAGCAAUAUUACGAACC | -1.99 ± 0.16 | -0.986 ± 0.26
21 | CAUCAGCAAUAUUACGAGAC | -3.95 ± 0.23 | -2.73 ± 0.16
22 | CUCGAGCAAUAUUACGGCAA | -1.82 ± 0.32 | -2.31 ± 0.27
23 | AGGGAGCAAUAUUACGGCUA | -2.09 ± 0.21 | -2.17 ± 0.18
24 | GGAAAGCAAUAUUACGAUGC | -0.209 ± 0.087 | -0.26 ± 0.12
25 | ACCAAGCAAUAUUACGGGGG | -2.15 ± 0.096 | -2.29 ± 0.14
26 | GGUAAGCAAUAUUACGGAGC | -2.99 ± 0.2 | -1.98 ± 0.22
27 | AAUUAGCAAUAUUACGCACG | -2.18 ± 0.2 | -0.641 ± 0.17
28 | UGGAAGCAAUAUUACGGCGC | -1.23 ± 0.22 | -0.241 ± 0.22
29 | UGCCAGCAAUAUUACGUGGU | -3.85 ± 0.21 | -2.83 ± 0.19
30 | AUGAAGCAAUAUUACGCCAG | -0.726 ± 0.13 | 0.273 ± 0.18
31 | GCGUAGCAAUAUUACGAGGU | -2.81 ± 0.36 | -2.62 ± 0.36
32 | ACUAAGCAAUAUUACGCUCG | -0.345 ± 0.09 | -0.528 ± 0.11
33 | AACCAGCAAUAUUACGUGAC | -2.59 ± 0.087 | -1.37 ± 0.1
34 | GACCAGCAAUAUUACGCCGA | -0.69 ± 0.14 | -0.272 ± 0.15
35 | AACUAGCAAUAUUACGCCAU | -2.6 ± 0.15 | -2.42 ± 0.18
36 | GAAGAGCAAUAUUACGUAUA | -2 ± 0.28 | -3.5 ± 0.34
37 | GUGAAGCAAUAUUACGCCUC | -1.22 ± 0.25 | -1.09 ± 0.48

Source: the supplement of paper PMC7877785
